Laboratory results as given in patent publication US20190256588A1 (BEIJING HANMI PHARM, published 2019).
Residue numbers refer to the chain shown, from its start.

B1: monoclonal antibody secreted by Clone No. 88 (antibody, V domains shown)
VH: DVQVQESGPGLVKPSQSLSLTCTVTGNSITSYYAWNWIRQFPGNKLEWMGYITYSGTTSYNPSLKSRISITRDTSKNQFFLQLNSVTTEDTATYYCAREEYDDIYAVDYWGQGTSVTVSS
VL: IIVMTQTPLSLPVSLGDQASISCRSSQSLVHSNGNTYLHWYLQKPGQSPKLLIYKVYNRFSGVPDRFSGSGSGTDFTLKISRVEAEDLGVYFCSQSTHFPTFGGGTKLEIK
notes: Murine hybridoma antibody tested as culture supernatant; also called murine anti-human IL-17A monoclonal antibody
B2: anti-human IL-17A humanized monoclonal antibody AS15799 (antibody, human IgG1, kappa, V domains shown)
VH: QVQVQESGPGLVKPSETLSLTCTVSGNSITSYYAWNWIRQPPGKGLEWMGYITYSGTTSYNPSLKSRVTISRDTSKNQFSLKLSSVTAADTAVYYCAREEYDDIYAVDYWGQGTLVTVSS
VL: IIVMTQSPLSLPVTLGQPASISCRSSQSLVHSNGNTYLHWYQQRPGQSPRRLIYKVYNRFSGVPDRFSGSGSGTDFTLKISRVEAEDVGVYYCSQSTHFPTFGQGTRLEIKR
B3: anti-human IL-17A humanized monoclonal antibody AS15805 (antibody, human IgG1, kappa, V domains shown)
VH: B2 VH with V68I
VL: B2 VL with I1D
B4: anti-human IL-17A humanized monoclonal antibody AS15820 (antibody, human IgG1, kappa, V domains shown)
VH: B2 VH with V4L, R72V
VL: B2 VL with I1D, R51L, Y92F
B5: anti-human IL-17A humanized monoclonal antibody AS15815 (antibody, human IgG1, kappa, V domains shown)
VH: B2 VH with V68I
VL: B2 VL with I1D, I2V, Y41F, R51L
B6: anti-human IL-17A humanized monoclonal antibody AS15803 (antibody, human IgG1, kappa, V domains shown)
VH: B2 VH with V68I, R72V
VL: B2 VL with R51L, Y92F
B7: anti-human IL-17A humanized monoclonal antibody AS15802 (antibody, human IgG1, kappa, V domains shown)
VH: B2 VH with V4L
VL: B2 VL with R51L, Y92F
B8: anti-human IL-17A humanized monoclonal antibody AS15810 (antibody, human IgG1, kappa, V domains shown)
VH: B2 VH with R72V
VL: B2 VL with I1D, I2V, R51L

Tests used:
recombinant human IL-17A [1] = target: T1, recombinant human IL-17A (human, UniProt Q16552 24-155); assay: ELISA, recombinant human IL-17A coated at 1 µg/mL, HRP anti-mouse IgG, OD450nm
T1 construct: also called IL-17A antigen
T1 sequence (Q16552 24-155 limits assumed): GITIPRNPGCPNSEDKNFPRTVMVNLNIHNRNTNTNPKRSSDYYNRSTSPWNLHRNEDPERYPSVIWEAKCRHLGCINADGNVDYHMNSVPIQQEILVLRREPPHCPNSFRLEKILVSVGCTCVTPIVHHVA
Experimental: The plate was washed five times with PBST. […] The plate was washed five times with PBST. […] The plate was washed five times with PBST. 100 μL/well of colorimetric substrate TMB was added and incubated at room temperature for 10 minutes. Color development was terminated by adding 100 μL/well of 1 M H₂SO₄. The absorbance at 450 nm was read on a microplate reader.

recombinant human IL-17A [2] = target: T1, recombinant human IL-17A; assay: ELISA, recombinant human IL-17A coated at 1 µg/mL, HRP anti-human IgG, OD450nm
Experimental: The antigen binding activity of humanized anti-human IL-17A monoclonal antibody was determined by ELISA. Recombinant human IL-17A (purchased from Sino Biological Inc.) was coated on a 96-well high-absorbing ELISA plate with a carbonate buffer solution with pH 9.6, the coating concentration was 1 μg/mL, the coating amount was 100 μL per well, and the coating was carried at 4° C. out overnight. The plate was washed five times with PBST and blocked with 300 μL/well of PBST containing 1% BSA and incubated at 25° C. for 1 hour. The plate was washed five times with PBST. […] The plate was washed five times with PBST. Then, horseradish peroxidase-labeled anti-human IgG antibody (Chemicon, Catalog Number AP309P) 1:2000 diluted in PBST containing 1% BSA was added, 100 μL was added to each well, incubated at 25° C. for 1 hour. The plate was washed five times with PBST. 100 μL/well of colorimetric substrate TMB was added and incubated at room temperature for 10 minutes. Color development was terminated by adding 100 μL/well of 1 M H2SO₄. The absorbance at 450 nm was read on a microplate reader.

Binder	EC50 (recombinant human IL-17A [1])	EC50 (recombinant human IL-17A [2])
B1	0.165 nM	
B2		0.091 nM
B3		0.082 nM
B4		0.089 nM
B5		0.077 nM
B6		0.087 nM
B7		0.088 nM
B8		0.083 nM
